Results from the supplement of paper PMC10065799, “High-throughput profiling of sequence recognition by tyrosine kinases and SH2 domains using bacterial peptide display” (eLife, 2023).

target: EPHB1 (UniProt P54762); assay: phosphorylation enrichment, bacterial display (enrichment ratio); higher = better substrate or ligand; peptides without Tyr show the background
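Further: 11-residue human phosphosite peptides and single-mutation variants displayed on the E. coli surface, counted by deep sequencing, each peptide's frequency after selection divided by its frequency in the unselected input library; frequency after pTyr selection over input frequency; kinase dosed for 20-30% of maximal phosphorylation in three min.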

Chain of EPHB1 (P54762 whole entry, looked up): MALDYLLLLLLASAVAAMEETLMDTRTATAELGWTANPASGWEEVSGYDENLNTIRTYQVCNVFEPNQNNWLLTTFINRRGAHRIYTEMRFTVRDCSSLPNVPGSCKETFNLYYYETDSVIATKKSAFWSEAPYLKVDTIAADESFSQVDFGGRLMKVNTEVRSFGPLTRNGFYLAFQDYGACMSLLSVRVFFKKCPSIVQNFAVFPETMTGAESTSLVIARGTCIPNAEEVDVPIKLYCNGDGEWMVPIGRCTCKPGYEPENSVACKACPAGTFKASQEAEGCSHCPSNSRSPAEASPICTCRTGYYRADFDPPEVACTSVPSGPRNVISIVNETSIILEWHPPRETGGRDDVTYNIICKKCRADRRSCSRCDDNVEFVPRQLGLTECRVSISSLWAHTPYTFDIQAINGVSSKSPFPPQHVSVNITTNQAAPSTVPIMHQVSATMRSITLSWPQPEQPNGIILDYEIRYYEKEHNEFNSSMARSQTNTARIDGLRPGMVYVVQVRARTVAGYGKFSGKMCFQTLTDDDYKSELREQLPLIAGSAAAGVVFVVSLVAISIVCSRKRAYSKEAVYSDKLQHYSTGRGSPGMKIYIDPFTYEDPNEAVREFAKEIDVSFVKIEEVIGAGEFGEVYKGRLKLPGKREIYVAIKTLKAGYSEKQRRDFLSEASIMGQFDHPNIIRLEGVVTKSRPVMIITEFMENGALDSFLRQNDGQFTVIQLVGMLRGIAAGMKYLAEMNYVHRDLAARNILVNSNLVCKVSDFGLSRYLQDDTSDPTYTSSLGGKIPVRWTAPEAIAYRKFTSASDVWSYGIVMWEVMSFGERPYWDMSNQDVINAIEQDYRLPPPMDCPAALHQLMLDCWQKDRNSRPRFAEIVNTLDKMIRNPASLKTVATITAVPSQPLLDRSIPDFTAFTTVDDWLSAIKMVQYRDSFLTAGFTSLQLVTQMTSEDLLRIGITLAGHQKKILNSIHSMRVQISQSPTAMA

Row | Sequence | phosphorylation enrichment
1 | AFLLLYFNDTH [BMP15_Y235] | 0.761
2 | FDAHNYHPLPV [OAT_Y55_G51D_YF] | 0.635
3 | RLQEDYDHSFF [ESD_Y258_G257D_YF] | 1.21
4 | SVTCTYSPAIN [TP53_Y126_L130I] | 1
5 | CSRRLYQLTKL [AR_Y858_F857L] | 0.451
6 | PDMHSYVVRYN [GRIN2D_Y732_M733V] | 0.787
7 | RMETEYGPSVT [MXRA5_Y2717] | 0.779
8 | LGRTRYQHVTG [MIPEP_Y510] | 0.439
9 | LGRGKYSEVFE [CSNK2A1_Y50] | 0.514
10 | FFVVEYRDQKP [MUC17_Y4332_YF] | 0.657
11 | DWQQEYVLNES [TGM1_Y267_R264Q] | 1.42
12 | YKEQGYHRLPS [RIN1_Y681_P686S] | 0.245
13 | PSQRRYLFFFS [PTEN_Y174_V175L_YF] | 0.818
14 | LSIQCYLRALD [HMGCS2_Y262] | 1.25
15 | CTTIHYIFMCN [TP53_Y234_N235I_YF] | 0.511
16 | GRDVIYKGFED [NFU1_Y194_G190R] | 0.528
17 | ERLWDYGMSSS [F8_Y1728] | 0.612

Row | Sequence | phosphorylation enrichment
18 | TARWEYMHSPS [CPOX_Y429] | 0.965
19 | HKGASYAFRLS [PTPRD_Y891_V892A] | 0.935
20 | PMDTFYDSTRG [DYNC2H1_Y2231_YF] | 0.919
21 | YRQNGYIPGSN [PCDHGA1_Y895_V894G] | 0.381
22 | GYRVCYTPDSR [PTPRF_Y451_Y450C] | 0.635
23 | SDVLSYGVTMW [ZAP70_Y525_W523L] | 0.626
24 | GHLYANDWISI [BEST1_Y227_Y227N] | 0.778
25 | TFRPPYYHRNC [HGD_Y333] | 0.506
26 | NSIGNYFKPWF [DHCR24_Y299_YF] | 8.66
27 | LHVGFYESDVM [A2M_Y708_R704H] | 1.41
28 | GSESDYIIMPN [SCARB1_Y133_V135I] | 6.96
29 | PMQLPYDSRWE [PDGFRA_Y582] | 0.472
30 | GSSKIYFLHPD [TLR5_Y108] | 0.529
31 | LDTFIYDAAVL [GRIN2A_Y730_A727T] | 1.68
32 | INNIDYYKNTT [FGFR2_Y656_K659N] | 0.392
33 | VNFGAYINFFK [GLB1_Y488_D491Y_YF] | 0.586

target: Jak2 (UniProt O60674); assay: as above
Sequence (O60674 whole entry, looked up): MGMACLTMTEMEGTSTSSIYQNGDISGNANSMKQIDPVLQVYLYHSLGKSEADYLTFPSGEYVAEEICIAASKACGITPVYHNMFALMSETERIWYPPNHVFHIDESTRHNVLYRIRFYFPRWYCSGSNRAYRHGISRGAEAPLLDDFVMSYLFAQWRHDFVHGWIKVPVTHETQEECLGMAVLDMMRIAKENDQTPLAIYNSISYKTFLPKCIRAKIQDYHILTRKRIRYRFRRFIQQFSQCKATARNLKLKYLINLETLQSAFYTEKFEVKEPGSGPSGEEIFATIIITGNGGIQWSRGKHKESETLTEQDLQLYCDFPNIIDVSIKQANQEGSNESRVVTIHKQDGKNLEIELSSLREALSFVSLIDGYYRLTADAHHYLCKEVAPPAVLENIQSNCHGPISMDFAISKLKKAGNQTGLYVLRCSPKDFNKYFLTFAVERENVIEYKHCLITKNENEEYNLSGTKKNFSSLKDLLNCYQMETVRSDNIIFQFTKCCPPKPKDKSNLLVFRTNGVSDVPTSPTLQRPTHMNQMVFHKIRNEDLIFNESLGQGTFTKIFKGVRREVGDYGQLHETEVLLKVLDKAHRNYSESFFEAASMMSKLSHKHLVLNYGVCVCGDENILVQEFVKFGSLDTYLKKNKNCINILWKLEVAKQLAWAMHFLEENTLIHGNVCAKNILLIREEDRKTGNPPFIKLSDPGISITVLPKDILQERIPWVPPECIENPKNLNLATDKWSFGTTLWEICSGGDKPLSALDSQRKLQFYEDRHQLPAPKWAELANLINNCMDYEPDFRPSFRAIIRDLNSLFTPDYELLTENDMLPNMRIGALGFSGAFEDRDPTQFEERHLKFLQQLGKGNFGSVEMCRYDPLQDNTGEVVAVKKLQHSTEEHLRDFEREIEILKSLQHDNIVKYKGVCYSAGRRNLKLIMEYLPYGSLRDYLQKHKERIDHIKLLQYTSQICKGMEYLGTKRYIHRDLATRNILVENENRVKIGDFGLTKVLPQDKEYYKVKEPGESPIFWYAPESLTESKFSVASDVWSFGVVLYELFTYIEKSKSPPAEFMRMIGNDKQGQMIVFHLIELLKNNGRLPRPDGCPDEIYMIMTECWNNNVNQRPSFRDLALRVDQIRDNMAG

Row | Sequence | phosphorylation enrichment
34 | AFLLLYFNDTH [BMP15_Y235] | 1.26
35 | FDAHNYHPLPV [OAT_Y55_G51D_YF] | 1.02
36 | RLQEDYDHSFF [ESD_Y258_G257D_YF] | 1.65
37 | SVTCTYSPAIN [TP53_Y126_L130I] | 1.37
38 | CSRRLYQLTKL [AR_Y858_F857L] | 0.794
39 | PDMHSYVVRYN [GRIN2D_Y732_M733V] | 1.04
40 | RMETEYGPSVT [MXRA5_Y2717] | 0.985
41 | LGRTRYQHVTG [MIPEP_Y510] | 0.559
42 | LGRGKYSEVFE [CSNK2A1_Y50] | 0.929
43 | FFVVEYRDQKP [MUC17_Y4332_YF] | 1.03
44 | DWQQEYVLNES [TGM1_Y267_R264Q] | 0.957
45 | YKEQGYHRLPS [RIN1_Y681_P686S] | 0.763
46 | PSQRRYLFFFS [PTEN_Y174_V175L_YF] | 1.74
47 | LSIQCYLRALD [HMGCS2_Y262] | 2.35
48 | CTTIHYIFMCN [TP53_Y234_N235I_YF] | 0.918
49 | GRDVIYKGFED [NFU1_Y194_G190R] | 0.767
50 | ERLWDYGMSSS [F8_Y1728] | 0.778

Row | Sequence | phosphorylation enrichment
51 | TARWEYMHSPS [CPOX_Y429] | 1.23
52 | HKGASYAFRLS [PTPRD_Y891_V892A] | 0.827
53 | PMDTFYDSTRG [DYNC2H1_Y2231_YF] | 0.892
54 | YRQNGYIPGSN [PCDHGA1_Y895_V894G] | 0.467
55 | GYRVCYTPDSR [PTPRF_Y451_Y450C] | 0.975
56 | SDVLSYGVTMW [ZAP70_Y525_W523L] | 1.04
57 | GHLYANDWISI [BEST1_Y227_Y227N] | 0.878
58 | TFRPPYYHRNC [HGD_Y333] | 0.686
59 | NSIGNYFKPWF [DHCR24_Y299_YF] | 7.86
60 | LHVGFYESDVM [A2M_Y708_R704H] | 1.34
61 | GSESDYIIMPN [SCARB1_Y133_V135I] | 0.919
62 | PMQLPYDSRWE [PDGFRA_Y582] | 0.821
63 | GSSKIYFLHPD [TLR5_Y108] | 0.714
64 | LDTFIYDAAVL [GRIN2A_Y730_A727T] | 1.4
65 | INNIDYYKNTT [FGFR2_Y656_K659N] | 0.59
66 | VNFGAYINFFK [GLB1_Y488_D491Y_YF] | 1.87

tested on: c-Src; assay: as above

Row | Sequence | phosphorylation enrichment
67 | AFLLLYFNDTH [BMP15_Y235] | 0.486
68 | FDAHNYHPLPV [OAT_Y55_G51D_YF] | 0.556
69 | RLQEDYDHSFF [ESD_Y258_G257D_YF] | 1.07
70 | SVTCTYSPAIN [TP53_Y126_L130I] | 0.684
71 | CSRRLYQLTKL [AR_Y858_F857L] | 0.657
72 | PDMHSYVVRYN [GRIN2D_Y732_M733V] | 0.603
73 | RMETEYGPSVT [MXRA5_Y2717] | 0.787
74 | LGRTRYQHVTG [MIPEP_Y510] | 0.445
75 | LGRGKYSEVFE [CSNK2A1_Y50] | 0.704
76 | FFVVEYRDQKP [MUC17_Y4332_YF] | 0.566
77 | DWQQEYVLNES [TGM1_Y267_R264Q] | 2.73
78 | YKEQGYHRLPS [RIN1_Y681_P686S] | 0.439
79 | PSQRRYLFFFS [PTEN_Y174_V175L_YF] | 0.441
80 | LSIQCYLRALD [HMGCS2_Y262] | 1.01
81 | CTTIHYIFMCN [TP53_Y234_N235I_YF] | 0.324
82 | GRDVIYKGFED [NFU1_Y194_G190R] | 1.97
83 | ERLWDYGMSSS [F8_Y1728] | 0.419

Row | Sequence | phosphorylation enrichment
84 | TARWEYMHSPS [CPOX_Y429] | 1.14
85 | HKGASYAFRLS [PTPRD_Y891_V892A] | 0.785
86 | PMDTFYDSTRG [DYNC2H1_Y2231_YF] | 0.664
87 | YRQNGYIPGSN [PCDHGA1_Y895_V894G] | 0.422
88 | GYRVCYTPDSR [PTPRF_Y451_Y450C] | 0.522
89 | SDVLSYGVTMW [ZAP70_Y525_W523L] | 0.531
90 | GHLYANDWISI [BEST1_Y227_Y227N] | 0.683
91 | TFRPPYYHRNC [HGD_Y333] | 0.559
92 | NSIGNYFKPWF [DHCR24_Y299_YF] | 0.458
93 | LHVGFYESDVM [A2M_Y708_R704H] | 0.676
94 | GSESDYIIMPN [SCARB1_Y133_V135I] | 0.6
95 | PMQLPYDSRWE [PDGFRA_Y582] | 0.893
96 | GSSKIYFLHPD [TLR5_Y108] | 1.83
97 | LDTFIYDAAVL [GRIN2A_Y730_A727T] | 7.94
98 | INNIDYYKNTT [FGFR2_Y656_K659N] | 0.378
99 | VNFGAYINFFK [GLB1_Y488_D491Y_YF] | 0.717

target: FGFR1 (UniProt P11362); assay: as above
Sequence (P11362 whole entry, looked up): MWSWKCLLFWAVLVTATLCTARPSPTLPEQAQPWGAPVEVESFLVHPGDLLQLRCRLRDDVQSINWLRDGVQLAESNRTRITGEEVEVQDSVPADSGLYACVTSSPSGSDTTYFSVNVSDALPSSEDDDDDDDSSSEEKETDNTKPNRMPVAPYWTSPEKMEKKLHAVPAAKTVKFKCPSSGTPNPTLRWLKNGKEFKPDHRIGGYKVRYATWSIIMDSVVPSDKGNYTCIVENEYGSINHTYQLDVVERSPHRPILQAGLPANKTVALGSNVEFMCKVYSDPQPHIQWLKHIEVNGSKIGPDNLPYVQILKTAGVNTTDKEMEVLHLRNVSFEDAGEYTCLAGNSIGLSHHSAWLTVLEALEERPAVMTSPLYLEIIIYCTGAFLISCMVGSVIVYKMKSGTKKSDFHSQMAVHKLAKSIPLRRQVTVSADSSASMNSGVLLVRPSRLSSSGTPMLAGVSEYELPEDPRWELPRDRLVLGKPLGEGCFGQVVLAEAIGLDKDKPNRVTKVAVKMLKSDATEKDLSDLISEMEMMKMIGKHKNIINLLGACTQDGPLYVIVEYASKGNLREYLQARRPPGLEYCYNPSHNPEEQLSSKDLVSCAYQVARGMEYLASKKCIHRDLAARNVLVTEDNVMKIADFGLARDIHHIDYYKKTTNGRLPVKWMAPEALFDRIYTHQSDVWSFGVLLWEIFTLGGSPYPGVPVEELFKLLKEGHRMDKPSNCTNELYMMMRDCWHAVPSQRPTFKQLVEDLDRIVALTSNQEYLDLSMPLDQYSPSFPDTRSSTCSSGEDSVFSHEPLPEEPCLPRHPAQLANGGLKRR

Row | Sequence | phosphorylation enrichment
100 | AFLLLYFNDTH [BMP15_Y235] | 0.49
101 | FDAHNYHPLPV [OAT_Y55_G51D_YF] | 10.7
102 | RLQEDYDHSFF [ESD_Y258_G257D_YF] | 0.842
103 | SVTCTYSPAIN [TP53_Y126_L130I] | 0.702
104 | CSRRLYQLTKL [AR_Y858_F857L] | 0.517
105 | PDMHSYVVRYN [GRIN2D_Y732_M733V] | 0.56
106 | RMETEYGPSVT [MXRA5_Y2717] | 0.91
107 | LGRTRYQHVTG [MIPEP_Y510] | 0.477
108 | LGRGKYSEVFE [CSNK2A1_Y50] | 0.685
109 | FFVVEYRDQKP [MUC17_Y4332_YF] | 0.612
110 | DWQQEYVLNES [TGM1_Y267_R264Q] | 1.11
111 | YKEQGYHRLPS [RIN1_Y681_P686S] | 0.485
112 | PSQRRYLFFFS [PTEN_Y174_V175L_YF] | 0.607
113 | LSIQCYLRALD [HMGCS2_Y262] | 0.672
114 | CTTIHYIFMCN [TP53_Y234_N235I_YF] | 0.416
115 | GRDVIYKGFED [NFU1_Y194_G190R] | 0.468
116 | ERLWDYGMSSS [F8_Y1728] | 0.433

Row | Sequence | phosphorylation enrichment
117 | TARWEYMHSPS [CPOX_Y429] | 0.536
118 | HKGASYAFRLS [PTPRD_Y891_V892A] | 0.66
119 | PMDTFYDSTRG [DYNC2H1_Y2231_YF] | 0.714
120 | YRQNGYIPGSN [PCDHGA1_Y895_V894G] | 0.399
121 | GYRVCYTPDSR [PTPRF_Y451_Y450C] | 0.492
122 | SDVLSYGVTMW [ZAP70_Y525_W523L] | 0.493
123 | GHLYANDWISI [BEST1_Y227_Y227N] | 0.609
124 | TFRPPYYHRNC [HGD_Y333] | 0.497
125 | NSIGNYFKPWF [DHCR24_Y299_YF] | 1.64
126 | LHVGFYESDVM [A2M_Y708_R704H] | 0.889
127 | GSESDYIIMPN [SCARB1_Y133_V135I] | 5.65
128 | PMQLPYDSRWE [PDGFRA_Y582] | 0.523
129 | GSSKIYFLHPD [TLR5_Y108] | 2.48
130 | LDTFIYDAAVL [GRIN2A_Y730_A727T] | 0.827
131 | INNIDYYKNTT [FGFR2_Y656_K659N] | 0.535
132 | VNFGAYINFFK [GLB1_Y488_D491Y_YF] | 0.663
